Measured values from patent publication US20160002326A1 (AbbVie / Abbott, published 2016).

What was measured:
[1] = molecular target: BAFF (UniProt Q9Y275 134-285); experiment: direct ELISA
[2] = molecular target: T1, CD40 ligand (UniProt P29965 113-261, limits assumed); experiment: direct ELISA
T1 sequence (looked up): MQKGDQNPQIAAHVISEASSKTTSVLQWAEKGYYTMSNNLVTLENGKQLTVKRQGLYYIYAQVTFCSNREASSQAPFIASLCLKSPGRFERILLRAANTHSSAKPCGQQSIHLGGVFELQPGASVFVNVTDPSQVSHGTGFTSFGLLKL

[3] = molecular target: T2, RANK ligand (UniProt O14788 140-317); experiment: direct ELISA
T2 sequence (looked up): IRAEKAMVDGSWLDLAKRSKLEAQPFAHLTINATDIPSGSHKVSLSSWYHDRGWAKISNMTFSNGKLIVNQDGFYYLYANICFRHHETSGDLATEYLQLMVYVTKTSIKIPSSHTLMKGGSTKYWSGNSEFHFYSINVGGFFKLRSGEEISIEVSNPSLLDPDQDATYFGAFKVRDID

[4] = molecular target: T3, GITR ligand (UniProt Q9UNG2 52-177); experiment: direct ELISA
T3 sequence (looked up): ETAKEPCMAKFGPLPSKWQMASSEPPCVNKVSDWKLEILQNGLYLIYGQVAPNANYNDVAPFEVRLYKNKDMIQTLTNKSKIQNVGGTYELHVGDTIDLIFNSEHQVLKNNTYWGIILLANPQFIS

[5] = molecular target: T4, rat TNF (rat, UniProt P16599 80-235); experiment: Biacore SPR
T4 construct: also called rodent TNF (rat); rat rTNF
T4 sequence (looked up): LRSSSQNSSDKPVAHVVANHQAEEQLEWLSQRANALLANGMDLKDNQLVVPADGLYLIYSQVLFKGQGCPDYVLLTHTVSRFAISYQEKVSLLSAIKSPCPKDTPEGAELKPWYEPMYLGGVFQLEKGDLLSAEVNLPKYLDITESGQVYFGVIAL

[6] = molecular target: T5, human TNF-α (human, UniProt P01375 77-233); experiment: cell-based or functional assay
T5 sequence (P01375 77-233 limits assumed): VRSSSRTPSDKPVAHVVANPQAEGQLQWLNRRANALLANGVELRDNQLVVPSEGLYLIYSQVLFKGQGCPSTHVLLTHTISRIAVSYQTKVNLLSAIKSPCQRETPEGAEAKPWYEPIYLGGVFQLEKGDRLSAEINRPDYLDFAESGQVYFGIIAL

[7] = molecular target: T6, human IL-17A/A homodimer (human, UniProt Q16552 24-155); experiment: cell-based or functional assay
T6 sequence: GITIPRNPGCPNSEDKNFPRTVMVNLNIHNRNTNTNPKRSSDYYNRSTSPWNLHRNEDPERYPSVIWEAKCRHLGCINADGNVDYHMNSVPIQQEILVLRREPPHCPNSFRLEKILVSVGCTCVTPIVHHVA

[8] = molecular target: T7, human IL-17A/F heterodimer (human, UniProt Q16552 24-155; Q96PD4 31-163); experiment: cell-based or functional assay
T7 sequence 1: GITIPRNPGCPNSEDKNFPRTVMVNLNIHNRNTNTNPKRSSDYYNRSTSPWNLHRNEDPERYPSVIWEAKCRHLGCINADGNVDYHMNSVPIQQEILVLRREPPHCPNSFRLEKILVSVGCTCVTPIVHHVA
T7 sequence 2: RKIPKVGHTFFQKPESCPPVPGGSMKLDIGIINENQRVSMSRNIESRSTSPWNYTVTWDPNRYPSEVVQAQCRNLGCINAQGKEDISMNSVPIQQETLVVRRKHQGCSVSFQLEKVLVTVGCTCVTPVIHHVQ

[9] = molecular target: T8, mouse TNF (mouse, UniProt P06804 80-235); experiment: cell-based or functional assay
T8 sequence (looked up): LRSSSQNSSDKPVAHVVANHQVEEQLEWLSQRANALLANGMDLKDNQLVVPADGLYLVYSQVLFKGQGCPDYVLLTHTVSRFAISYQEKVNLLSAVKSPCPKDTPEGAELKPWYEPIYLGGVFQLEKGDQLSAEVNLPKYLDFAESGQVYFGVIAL

[10] = molecular target: T4, rat TNF; experiment: cell-based or functional assay
[11] = molecular target: T9, rabbit TNF (rabbit, UniProt P04924 80-235, limits assumed); experiment: cell-based or functional assay
T9 sequence (looked up): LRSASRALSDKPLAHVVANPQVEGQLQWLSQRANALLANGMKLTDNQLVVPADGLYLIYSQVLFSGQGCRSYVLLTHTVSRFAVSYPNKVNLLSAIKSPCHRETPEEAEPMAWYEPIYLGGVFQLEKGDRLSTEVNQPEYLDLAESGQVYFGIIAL

[12] = molecular target: T5, human TNF-α; experiment: cell-based or functional assay; remark: listed apart in the source
[13] = molecular target: T6, human IL-17A/A homodimer; experiment: cell-based or functional assay; remark: listed apart in the source
[14] = molecular target: monkey (Rhesus/Cynomolgus) TNF (monkey (Rhesus/Cynomolgus), UniProt P48094 77-233); experiment: cell-based or functional assay
monkey (Rhesus/Cynomolgus) TNF, sequence (P48094 77-233 limits assumed): as the sequence (P01375 77-233 limits assumed) above, with R44T, T72N, R138L counted along it

[15] = molecular target: T10, monkey (Rhesus/Cynomolgus) IL-17 (monkey (Rhesus/Cynomolgus), UniProt F6T3G5 24-155); experiment: cell-based or functional assay
T10 sequence: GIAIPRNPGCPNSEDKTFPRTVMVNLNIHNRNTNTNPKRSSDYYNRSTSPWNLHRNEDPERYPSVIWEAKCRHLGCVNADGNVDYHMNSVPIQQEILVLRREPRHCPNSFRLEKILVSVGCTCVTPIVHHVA

[16] = molecular target: T11, mouse IL-17 (mouse, UniProt Q62386 26-158, limits assumed); experiment: cell-based or functional assay
T11 sequence (looked up): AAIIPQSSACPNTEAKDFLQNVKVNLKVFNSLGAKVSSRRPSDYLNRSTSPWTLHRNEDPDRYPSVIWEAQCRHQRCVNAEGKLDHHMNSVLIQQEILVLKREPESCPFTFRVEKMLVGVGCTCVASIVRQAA

[17] = molecular target: T12, rat IL-17 (rat, UniProt Q61453 18-150, limits assumed); experiment: cell-based or functional assay
T12 sequence (looked up): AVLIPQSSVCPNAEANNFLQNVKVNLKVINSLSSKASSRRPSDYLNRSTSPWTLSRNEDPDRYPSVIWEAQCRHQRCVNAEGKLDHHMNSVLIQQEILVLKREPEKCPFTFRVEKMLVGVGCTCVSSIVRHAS

[18] = molecular target: T5, human TNF-α; experiment: Biacore SPR, 3 experiments; same value as Table 7; unit not printed in Table 10
Description: (§1) The apparent association rate (ka) and dissociation rate (kd) were derived and used to calculate the overall equilibrium dissociation constant (KD) for the interaction.

[19] = molecular target: T6, human IL-17A/A homodimer; experiment: as above
Description: as §1

[20] = molecular target: T5, human TNF-α; experiment: Biacore SPR, recombinant antigen, mean of 3 experiments; exponent as printed

BAFF, sequence (Q9Y275 134-285 limits assumed): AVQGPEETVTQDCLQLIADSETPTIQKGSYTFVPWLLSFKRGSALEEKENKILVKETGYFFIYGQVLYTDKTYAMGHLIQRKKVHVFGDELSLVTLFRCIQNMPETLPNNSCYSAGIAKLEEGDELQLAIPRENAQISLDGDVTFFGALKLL

B1: ABBV-257 anti-human TNF and IL-17 DVD-Ig binding protein (bispecific antibody, human IgG1, kappa, L234A L235A)
heavy: EVQLVQSGAEVKKPGASVKVSCKASGYTFANYGIIWVRQAPGQGLEWMGWINTYTGKPTYAQKFQGRVTMTTDTSTSTAYMELSSLRSEDTAVYYCARKLFTTMDVTDNAMDYWGQGTTVTVSSGGGGSGGGGSEVQLVQSGAEVKKPGSSVKVSCKASGYTFTDYEIHWVRQAPGQGLEWMGVNDPESGGTFYNQKFDGRVTLTADESTSTAYMELSSLRSEDTAVYYCTRYSKWDSFDGMDYWGQGTTVTVSSASTKGPSVFPLAPSSKSTSGGTAALGCLVKDYFPEPVTVSWNSGALTSGVHTFPAVLQSSGLYSLSSVVTVPSSSLGTQTYICNVNHKPSNTKVDKKVEPKSCDKTHTCPPCPAPEAAGGPSVFLFPPKPKDQLMISRTPEVTCVVVDVSHEDPEVKFNWYVDGVEVHNAKTKPREEQYNSTYRVVSVLTVLHQDWLNGKEYKCKVSNKALPAPIEKTISKAKGQPREPQVYTLPPSREEMTKNQVSLTCLVKGFYPSDIAVEWESNGQPENNYKTTPPVLDSDGSFFLYSKLTVDKSRWQQGNVFSCSVLHEALHNHYTQKSLSLSPGK
light: DIQMTQSPSSLSASVGDRVTITCRASQDISQYLNWYQQKPGKAPKLLIYYTSRLQSGVPSRFSGSGSGTDFTLTISSLQPEDFATYFCQQGNTWPPTFGQGTKLEIKRGGSGGGGSGDIQMTQSPSSLSASVGDRVTITCRASSGIISYIDWFQQKPGKAPKRLIYATFDLASGVPSRFSGSGSGTDYTLTISSLQPEDFATYYCRQVGSYPETFGQGTKLEIKRTVAAPSVFIFPPSDEQLKSGTASVVCLLNNFYPREAKVQWKVDNALQSGNSQESVTEQDSKDSTYSLSSTLTLSKADYEKHKVYACEVTHQGLSSPVTKSFNRGEC
modifications: N-linked glycans on the heavy chain at the asparagine commonly modified on IgG1 antibodies (fucosylated biantennary oligosaccharides with 0, 1 or 2 galactose residues)
notes: It says the constant region carries L234A, L235A and also T250Q and M428L; also called Anti-IL-17/TNF DVD-Ig Protein
[1]
  binding result: no binding
[2]
  binding result: no binding
[3]
  binding result: no binding
[4]
  binding result: no binding
[5]
  binding result: no binding (tested: at concentrations up to 500 nM of rTNF)
[6]
  Mean IC50, inhibition of TNF-induced lethality of L929 cells: 0.025 nM
[7]
  Mean IC50, inhibition of IL-17 dependent induction of IL-6 in fibroblasts: 0.026 nM
[8]
  Mean IC50, inhibition of IL-17 dependent induction of IL-6 in fibroblasts: 0.11 nM
[9]
  IC50, in vitro neutralization assay (In-Vitro Potency): > 1000 nM
[10]
  IC50, in vitro neutralization assay (In-Vitro Potency): > 1000 nM
[11]
  IC50, in vitro neutralization assay (In-Vitro Potency): > 1000 nM
[12]
  IC50, in vitro neutralization assay (In-Vitro Potency): 0.025 nM
[13]
  IC50, in vitro neutralization assay (In-Vitro Potency): 0.026 nM
[14]
  IC50, in vitro neutralization assay (In-Vitro Potency): 0.025 nM
[15]
  IC50, in vitro neutralization assay (In-Vitro Potency): 0.032 nM
[16]
  IC50, in vitro neutralization assay (In-Vitro Potency): 0.239 nM
[17]
  IC50, in vitro neutralization assay (In-Vitro Potency): 0.135 nM
[18]
  Kd: 0.0049 nM
[19]
  Kd: 0.003 nM
[20]
  koff: 1.6e-05 s⁻¹
